Experimental data reported in IntAct's records for PubMed 22135460.

B1: Late transcription coactivator (Enterobacteria phage T4), P13338 (parent)
chain: MTQFSLNDIRPVDETGLSEKELSIKKEKDEIAKLLDRQENGFIIEKMVEEFGMSYLEATTAFLEENSIPETQFAKFIPSGIIEKIQSEAIDENLLRPSVVRCEKTNTLDFLL

Variants of: B1
Conditions: with rpob_ecoli rpoB

| Variant | effect of a mutation on the interaction |
| --- | --- |
| E70K | decreasing interaction strength |
